The record followed here is paper PMC11951046.

For assay [1], the target named is Cyt2Aa2 protoxin (Bacillus thuringiensis subsp. darmstadiensis). Kind of assay: SDS-PAGE of unheated sample with immunodetection.
Assay [2] addresses activated Cyt2Aa2 protein (chymotrypsin-activated) (Bacillus thuringiensis subsp. darmstadiensis). Kind of assay: SDS-PAGE ladder pattern of unheated sample with immunodetection.

Cyt2Aa2 protoxin (natural protein): the stoichiometry N (usually the number of molecules, sites or subunits per partner or assembly) in assay [1] worked out at 2.

As to “activated Cyt2Aa2 protein (chymotrypsin-activated) (natural protein)”, the stoichiometry N in assay [2] was over 10.
